The source of these data is article PMC8686072.

pKd: −log10 of the molar value.

For the test, the target named is DCLK1 KD (DCLK1 kinase domain lacking the inhibitory C-terminal tail) (human) (UniProt O15075). Nature of the test: SPR.

What is called pKd is −log10 of the Kd, conventionally taken in molar units. A higher pKd goes with a small Kd.

UniProt O15075, sequence (O15075 390-647): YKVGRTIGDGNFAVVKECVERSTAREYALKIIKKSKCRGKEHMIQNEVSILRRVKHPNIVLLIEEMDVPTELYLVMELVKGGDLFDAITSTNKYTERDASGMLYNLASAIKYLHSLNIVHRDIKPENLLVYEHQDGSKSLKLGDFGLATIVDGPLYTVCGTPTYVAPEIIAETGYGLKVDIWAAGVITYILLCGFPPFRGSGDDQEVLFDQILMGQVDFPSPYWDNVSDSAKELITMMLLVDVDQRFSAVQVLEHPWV

Take “DCLK1 AID peptide (C-terminal autoinhibitory domain of DCLK1 isoform 2)”: the pKd was 3.81.
